assay: soluble on expression in E. coli; label from the status in PepcDB or PDB records

Sequence | soluble on expression in E. coli
MSSQSSSADGKVTLKFFHRWPKEPEKSYFEEVVKEFEKDHPDIDIQIEAVLNDSYKDKIKVMLGTTSPPDIYFSWSDEFAFKFIRGNKALDLSSYYKNDTDWSSQLVQSQITPFTYENKQYGVPWQMDAKSFFYNKDIFQKLNLDPPKTWDELIDVSKKLKEHGYTPISFGTKATWTISHYIGTLNQRMVDEKTREKDYNAKTGEFTDEGYVKALEKLQELMPYFNKHVNSVDHEYVRQQFKSGKSAMIYAETAEIKLVEPVNLGMFPFPEISGQKGSSEALTGAPEGFMISSRTKHPKEAMEFLQFLTSKRMGEKLVKDVGKYSAVQGTATEENATAIQREAVQHIVDAKSMVPWFDMDVDVEVADAYLTGVQQMLGGDMTPQQVMKAVQKAAKQVRASAELEHHHHHH | soluble
MSSRTANSSSRNDESLRTGQHKENPNYWGFANFPNQVFRRAVKNGFDFTLMVVGRSGLGKSTFINTLFLAEINNLNEKESAPTHPHPSTVRVEEKLVKLVENSVSLNLTLVDTPGFGDAVNNSKCWEPIVNYVESKFFEQFCEETRIDRGEKIVDKCVHLCLYFIEPSGHGLKPIDIELMKHLHGRVNIVPVISKADCLTRDELLRFKKQIVKDAETAEIKLYKFPELEDPYTDKVAIEKLRKALPFAIIGSNMLKEKDGKKIRYREYPWGTVEVENMQHNDFLTLRDMIIRTNLIDMIDVTRNVHYENFRFRQMEGLPKNEKNRDPFTHLEEERRQKEQDLDEKRNTLEKVFTEKTSARKKRSDERMSALEELEQQNKQKIDAKRAEIIRLRHEISELKNGNLTSSQTSLAMYNENNHSQNSTLNSTTKSSPPPTSATSSSSGTMKKRMGGLGLFNRN | not soluble
MSSSANSIKVVARFRPQNRVEIESGGQPIVTFQGPDTCTVDSKEAQGSFTFDRVFDMSCKQSDIFDFSIKPTVDDILNGYNGTVFAYGQTGAGKSYTMMGTSIDDPDGRGVIPRIVEQIFTSILSSAANIEYTVRVSYMEIYMERIRDLLAPQNDNLPVHEEKNRGVYVKGLLEIYVSSVQEVYEVMRRGGNARAVAATNMNQESSRSHSIFVITITQKNVETGSAKSGQLFLVDLAGSEKVGKTGASGQTLEEAKKINKSLSALGMVINALTDGKSSHVPYRDSKLTRILQESLGGNSRTTLIINCSPSSYNDAETLSTLRFGMRAKSIKNKAKVNAELSPAELKQMLAKAKTQ | soluble
MSSSDHIHVPDGLAESYSRSGGEEGRAWIAGLPALVARCVDRWELKRDGGVRSGEASLVVPVLRADGTRAALKLQMPREETTAALIGLRAWGGDGMVRLLDHDEESSTMLLERLDGSRTLASVEDDDEAMGVLAGLLNRLHSVPAPPGLRGLGEIAGAMVEEVPSAVDSLADPEDRSRLRGWASAVAELVGEPGDRVLHWDLHYENVLAAEREPWLAIDPEPLVGDPGFDLWPALDTGWERIEATGDARRVVRRRFDLLTEALELDRGRAAGWTLARLLQNTLWDIEDGLTAIAPSQIAVAEALAKP | not soluble
MSSSLFAPTIETIDYPFPPKPVPLSDAQKADYKARIKQLLIEKDAVLVAHYYTDPEIQALAEETGGCVSDSLEMARFGRDHPAKTLIVAGVKFMGETAKILSPEKTILMPTLEATCSLDLGCPIDKFSAFCDAHPDHTVVVYANTSAAVKARADWVVTSSIALEIVEHLDSEGKKIIWGPDRHLGSYIAKQTGAEMLMWQGDCIVHDEFKANALRDLKSVYPDAAILVHPESPASVVAMADAVGSTSQLIKAAQTMPNERFIVATDRGIFYKMQQAAPGKTLIEAPTGGNGATCKSCAHCPWMAMNGLKAIEASLSNSDKTTHEIFVDEDLRVKALIPLTRMLDFAKTLNMKVKGNALEHHHHHH | not soluble
MSSSREENVYLAKLAEQAERYEEMVEFMEKVAKTVDTDELTVEERNLLSVAYKNVIGARRASWRIISSIEQKEESRGNDDHVSIIKDYRGKIETELSKICDGILNLLDSHLVPTASLAESKVFYLKMKGDYHRYLAEFKTGAERKEAAESTLVAYKSAQDIALADLAPTHPIRLGLALNFSVFYYEILNSPDRACSLAKQAFDEAISELDTLGEESYKDSTLIMQLLRDNLTLWNSDINDEAGGDEIKEASKHEPEEGKPAETGQ | soluble
MSSTAGGEVSINSGDLLLGTLSTSITKLEQQIRATQLSQKKLNSDCETMAEYLRDLSEYKQPVDLLPYVGKLNDSTIRVNNTHQKLDDLLERLTKLQRQIARETYKKKNSIKEQEPPVQPEN | not soluble
MSSVPRFWRNLGSRYNLEGTRCKECGEYFYPPRNVCVNCRRMGELEPFKFKGTGEIVSYTLIHTGAEGFEGQAPYTLAIIKLDEGPRLTSQVVGNTDNIQIGTRVRSVFRKLGEDGERGMIYYGTKFVPVDALEHHHHHH | soluble

From the DeepSol protein solubility set
